Consider nine molecules from patent publication US20180162932A1 (ACADEMISCH MEDISCH CENTRUM, published 2018).

For orientation: EC50 (read off the curve) means the concentration needed to bring the measured effect to its halfway point. Read a low EC50 (read off the curve) as higher potency in that assay. By Kd is commonly meant the concentration at which binding is half-saturated. A low value points to higher affinity.

Several values for one entry are separate records, joined by “and”; a condition that tells them apart may be missing. Identical values can stand only once.

B1: VHH C4 (VHH)
VHH: EVQLVESGGGLVQAGGSLRLSCAASGRTFSTYAMGWFRQAPGKEREFVAAISKGGGITYYSDSVRGRFTISKENAKNTVYLQMNSLKPEDTAVYYCAADPVSSVAKSPVAYPYWGQGTQVTVSS
notes: Produced in E. coli periplasm with tags (anti-myc detection, TALON purification); also called C4 monomer; C4 monohead
B2: mouse Noggin (other, UniProt P97466 28-232, looked up)
chain: QHYLHIRPAPSDNLPLVDLIEHPDPIFDPKEKDLNETLLRSLLGGHYDPGFMATSPPEDRPGGGGGPAGGAEDLAELDQLLRQRPSGAMPSEIKGLEFSEGLAQGKKQRLSKKLRRKLQMWLWSQTFCPVLYAWNDLGSRFWPRYVKVGSCFSKRSCSVPEGMVCKPSKSVHLTVLRWRCQRRGGQRCGWIPIQYPIISECKCSC
B3: VHH E7 (VHH)
VHH: EVQLVESGGGLVQAGGSLRLSCAASGSIRGFVAMAWYRQAPGKQREWVATVTNGGTLYGDSVKGRFTGSRDNAKNTVYLQMNSLKPEDTAVYYCALRQIGASGYDYWGQGTQVTVSS
notes: also called E7 monomer
B4: C4C4 homo-bihead (designed binder)
chain: EVQLVESGGGLVQAGGSLRLSCAASGRTFSTYAMGWFRQAPGKEREFVAAISKGGGITYYSDSVRGRFTISKENAKNTVYLQMNSLKPEDTAVYYCAADPVSSVAKSPVAYPYWGQGTQVTVSSGGGGSGGGGSEVQLVESGGGLVQAGGSLRLSCAASGRTFSTYAMGWFRQAPGKEREFVAAISKGGGITYYSDSVRGRFTISKENAKNTVYLQMNSLKPEDTAVYYCAADPVSSVAKSPVAYPYWGQGTQVTVSS
notes: also called C4C4 dimer
B5: VHH C8 (VHH)
VHH: EVQLVESGGGLVQAGGSLRLSCAASGRTFRINDMGWYRQAPGKSRDMVARITSGGNTNYADSVKGRFTISRDNAKNTVYLQMNSLKPEDTAVYYCNADGLRFDSTRYRPFDSWGQGTQVTVSS
notes: also called C8 monomer
B6: human mature bone morphogenic protein 4 (ligand)
chain: KHHSQRARKKNKNCRRHSLYVDFSDVGWNDWIVAPPGYQAFYCHGDCPFPLADHLNSTNHAIVQTLVNSVNSSIPKACCVPTELSAISMLYLDEYDKVVLKNYQEMVVEGCGCR
notes: Recombinant, R&D Systems (314-BP-020); mature active dimer; also called BMP4; BMP-4
B7: C8C8 homo-bihead (designed binder)
chain: EVQLVESGGGLVQAGGSLRLSCAASGRTFRINDMGWYRQAPGKSRDMVARITSGGNTNYADSVKGRFTISRDNAKNTVYLQMNSLKPEDTAVYYCNADGLRFDSTRYRPFDSWGQGTQVTVSSGGGGSGGGGSEVQLVESGGGLVQAGGSLRLSCAASGRTFRINDMGWYRQAPGKSRDMVARITSGGNTNYADSVKGRFTISRDNAKNTVYLQMNSLKPEDTAVYYCNADGLRFDSTRYRPFDSWGQGTQVTVSS

Assay [1] deals with T1, mature bone morphogenic protein 2 (human, UniProt P12643 283-396). As to the kind of experiment: cell-based or functional assay.
T1 sequence (P12643 283-396): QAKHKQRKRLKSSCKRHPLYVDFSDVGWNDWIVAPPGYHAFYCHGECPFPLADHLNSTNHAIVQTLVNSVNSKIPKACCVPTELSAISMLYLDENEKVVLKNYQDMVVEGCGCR
Assay [2] deals with B6. As to the kind of experiment: cell-based or functional assay.
Assay [3] deals with B6. As to the kind of experiment: titration ELISA of purified VHH on immobilized BMP4. On the technique in general: ELISA stands for enzyme-linked immunosorbent assay.
Assay [4] has as its target T2, human mature bone morphogenic protein 6 (human, UniProt P22004 375-513).
T2 construct: also called BMP6; BMP-6
T2 sequence: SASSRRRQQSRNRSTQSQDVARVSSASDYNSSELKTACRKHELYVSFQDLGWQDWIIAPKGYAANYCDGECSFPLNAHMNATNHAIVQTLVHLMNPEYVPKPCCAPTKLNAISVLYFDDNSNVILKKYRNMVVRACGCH
As to the kind of experiment: summary of SPR results.

The target of assay [5] is B6. As to the kind of experiment: SPR, ratio of KD values. The procedure:
(§1) In a first set of experiments, controls and VHHs (either as monomers or dimers) were coupled to SPR chips and the measurement of BMP affinities was obtained by injecting the different BMPs to the plate.
(§2) Serial dilutions (2.0-10 μg/ml) of purified VHHs were spotted on an amine-specific SensEye gold-film gel-type SPRchip (Ssens), using a Continuous Flow Microspotter (Wasatch Microfluidics, Salt Lake City, Utah, United States) as described (Lokate et al., 2007). BMP binding was analyzed on an IBIS MX96 (IBIS Technologies, Enschede, The Netherlands) instrument by performing injections with dilution series (0.05-2.0 μg/ml) of recombinant BMPs on the VHH-coated chip. In each injection, BMPs were injected and incubated for 8 min, followed by 15 min thorough washing with binding buffer (PBS+0.05% Tween20+0.05% sodium azide) to measure dissociation. Epitope binning was done by injecting VHH dilutions (2.0 μg/ml) over the chip, immediately after the dissociation step. Injections with blank binding buffer were used as reference. After each concatenated injection, the chip was regenerated with 10mM glycine-HCl, pH 2.0. Experimental data were processed with SPRintX software (IBIS Technologies) and kinetic parameters were determined using Scrubber2 software (BioLogic Software, Campbell, ACT, Australia). Binding constants were obtained by global fitting to a one-site binding model.
Background: Surface plasmon resonance follows binding to a sensor surface in real time, without labels.

Assay [6] addresses B6. As to the kind of experiment: SPR (IBIS MX96), VHH or control on chip, BMP injected. The procedure: as §1, §2
In assay [7] the target is T3, human mature bone morphogenic protein 5 (human, UniProt P22003 340-454).
T3 construct: Often printed as BMPS in the text; also called BMP5; BMPS (so in the source)
T3 sequence: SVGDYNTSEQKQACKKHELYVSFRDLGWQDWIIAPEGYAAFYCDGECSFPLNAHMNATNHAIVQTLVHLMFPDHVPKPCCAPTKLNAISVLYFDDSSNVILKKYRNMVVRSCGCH
As to the kind of experiment: western blot of unreduced recombinant BMP, C4C4 as primary antibody. In general terms: A western blot detects proteins with antibodies after separation by electrophoresis.
Experimental: To determine the different forms of BMP4, recombinant proteins and carcinoma cell lines lysate were used. Protein concentrations of cell lysates were determined using Pierce™ BCA Protein Assay Kit (Pierce Biotechnology, Rockford, Ill. USA), following the manufacturer's protocol. Equal amount of sample were loaded (between 8 and 30 μg/lane) on a 10% SDS-polyacrylamide gel and subsequently blotted onto PVDF transfer membranes. The membranes were blocked with blocking solution (5% Nonfatmilk+Tris-Buffered Saline with Tween®-20 (TBST) or 5% bovine serum albumin (BSA)+TBST) and subsequently incubated with the appropriate primary antibody and secondary antibody. Afterwards, membranes were washed and incubate with chemiluminescent solution (Pierce™ ECL subtract, Pierce Biotechnology, Rockford, Ill. USA) and visualized using ImageQuant LAS 4000 (GE Healthcare Life Science). […] Secondary antibodies include: HRP-anti-rabbit (1:200; Cat. No. P0448; Dako), HRP-anti-mouse (1:2000; Cat. No. P0447; Dako) and HRP-anti-llama (1:1000; Cat. No. ab112786; Abcam).

Assay [8] addresses T3, human mature bone morphogenic protein 5. As to the kind of experiment: SPR, VHH on chip, BMP injected. The procedure:
as §2

Assay [9] deals with T2, human mature bone morphogenic protein 6. As to the kind of experiment: SPR, VHH on chip, BMP injected. As for the experimental part:
as §2

In assay [10] the target is T4, human mature bone morphogenic protein 7 (human, UniProt P18075 293-431).
T4 construct: also called BMP7; BMP-7
T4 sequence: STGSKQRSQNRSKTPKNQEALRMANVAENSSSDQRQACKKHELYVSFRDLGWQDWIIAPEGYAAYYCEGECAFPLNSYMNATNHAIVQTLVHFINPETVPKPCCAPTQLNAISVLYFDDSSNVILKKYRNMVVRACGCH
As to the kind of experiment: SPR, VHH on chip, BMP injected. The procedure: as §2

Assay [11] deals with T1, mature bone morphogenic protein 2. As to the kind of experiment: SPR (IBIS), VHH spotted on the chip, BMP2 injected. The procedure:
as §1, §2

The target of the assay “mouse Noggin” is B2. As to the kind of experiment: SPR (IBIS MX96), VHH or control on chip, BMP injected. As for the experimental part: as §1, §2

Regarding “human Noggin (from UniProt Q13253 28-232)”, the IC50, BRE-luciferase, C2C12 cells in [1] turned out to be 1600 pM; in assay [2] it was 540 pM.

As to “anti-BMP4 R&D (Clone 66119, Mouse IgG2B, MAB757) (antibody)”, the percent inhibition of the BMP4-specific signal at 100 ng/ml, BRE-luciferase, C2C12 cells in assay [2] turned out to be 30%.

Regarding B1, the “EC50 (read off the curve)” value in assay [3] is about 3000 pM.

As for B2, the “IC50, BRE-luciferase, C2C12 cells” value in assay [1] was about 2500 pM; in [2] it was about 615 pM.

As for B3, the binding result in assay [4] is “binds”.

As for B4, in assay [2], the “IC50, BRE-luciferase, C2C12 cells” value is ~600 pM and 1.3 ng/ml and 45 nM; the “fold increase in inhibition against monomer C4, BRE-luciferase, C2C12 cells” value stood at 9 fold. In assay [5], the “fold higher affinity than BMPR1a” value turned out to be 70 fold and the “fold higher affinity than Noggin” value came to 10 fold. Further, binding in assay [6] was characterised by a dissociation constant (Kd) of 9.7 pM. In addition, the binding result in [7] was “no binding (tested: 0.1 µg/ml primary antibody)”.

As to B5, the binding result is reported as “no binding” in assay [8], “no binding” in [9], “no binding” in assay [10] and “binds” in [11].

As for B6, the Kd in the assay with mouse Noggin stood at 91 pM. This counts as picomolar.

Take B7: the “IC50, BRE-luciferase, C2C12 cells” value in assay [1] is 1200 pM. In assay [2], the “IC50, BRE-luciferase, C2C12 cells” value was about 450 pM and the “fold potency on BMP4 against BMP2, BRE-luciferase, C2C12 cells” value came out at 16 fold.
